Assay results published in patent publication US20160053277A1, “Compositions Having Dicamba Decarboxylase Activity and Methods of Use” (PIONEER HI-BRED INTERNATIONAL, INC., priority 2013, published 2016).

Assays:
[1] = 14C assay with IPTG-induced recombinant E. coli cells: 14CO2 captured from [14C]-carboxyl-labeled dicamba; conditions: for Enzymatic Detection level: dicamba decarboxylation activity of the protein of the given SEQ ID NO, High / Low / No; for Dicamba Decarboxylase Activity: induced recombinant E. coli cells, [14C]-carboxyl-labeled dicamba, 14CO2 capture
[2] = Saturation mutagenesis of SEQ ID NO:109: dicamba decarboxylation activity of point mutants (carbon dioxide released); conditions: decarboxylation activity (carbon dioxide released) of point mutant compared with unmutated backbone protein; backbone SEQ ID NO: 109
[3] = Shuffled variant libraries: 14CO2 capturing assay in 384-well format; conditions: decarboxylation activity (carbon dioxide released) compared with unmutated backbone protein SEQ ID NO 133 (DDEC0201)

Molecule | Enzymatic Detection level [1] | Dicamba Decarboxylase Activity [1] | Fold Activity [2] | Fold Activity [3]
17 (protein, Aspergillus niger) MARGKIALEEAFEVKGMDEEIDAQAALYIAPKDVERYKRQIVSITDERLQLSDQNGIGYSILSLTVPGIQGITDKDKAEKRARDVNNYIHDQIKDHRDRLGAFAALSMHDPRQAGHELRRCVKELGFHGALLNDVQHTGEGDDDQPLFYDQPDYDEFWRVAVELDVPVYLHPAAPLRDTLIYKQSYEDRKYLVGPPQSYCNGVALHLMGIIVNGVFDRFPNLKVIVGHMGERIPFDFWRMDHWVKGVTRPLAEKNGDTVCQKEPLYYFKRNIYITTSGHFSTQNLRYLYEWLGDERMMFSVDFPYERMEHGCQWYDDDAEKIKEALGGRDGYLRVGRDNARRLFKLTKFKDCDAV | Low | Low | 1.8 | –
18 (protein, listed as Legionella pneumophila) MAIVDFETHFITEACIDYLTQRQEVPKLVPELNGAYTMCFTPDVSLFHTSALMEELLSLNEQRLAIMDQAGVTIQVLSLTTINGIDSCPGDENKSTALAREVNDQLYSAIQKHPERFKGFASISPYDVKEGVKELERAISQLGFVGWLTHSNFGQDNYLDDKIYWPLLEAAESLNIPIYLHPNVPIMREFGKYGFALGGSALGFEFDTALCLMRMILGGVFDAFPKLKIMLGHLGETMPFLMERLDHLYRIPDLKPYRPSIQRIPSEVLRQNVYITTSGRFFVPALRYVLEVMGEDRVLFASDYPMESLLDATRFIQDSDLSNQTKQKIFSINAKNLNLI | Low | Low | 1.2 | –
20 (protein, listed as Legionella pneumophila) MAIVDFETHFITEACIDYLTQRQEVPKLVPDLNGAYTMCFTPDVSLFHTSALMEELLSLNEQRLAIMDQAGVTIQVLSLTTINGIDSCPGDENKSTALAREVNDQLYSAIQRHPERFKGFASISPYDVKEGVKELERAISQLGFVGWLTHSNFGQDNYLDDKTYWPLLEAAEGLNIPIYLHPNVPIMREFGKYGFALGGSALGFEFDTALCLMRMILGGVFDAFPKLKIMLGHLGETMPFLMERLDHLYRIPDLKAYRPSIQRIPSEVLRQNVYITTSGRFFVPALRYVLEVMGEDRVLFASDYPMESLLDATRFIQDSDLSNQTKQKIFSINAKNLNLI | Low | Low | 1.8 | –
123 (protein, Dicamba decarboxylase variant clone: S03902153) MAQGKVALEEHFAIPETLQDSAGFVPGDYWKELQHRLLDIQDTRLKLMDAHGIETMILSLAAPAVQAIPDRRKAIEIARRANDVLAEECAKRPDRFLAFAALPLQDPDAATEELQRCVNDLGFVGALVNGFSQEGDGQTPLYYDLPQYRPFWGEVEKLDVPFYLHPRNPLPQDSRIYDGHPWLLGPTWAFAQETAVHALRLMASGLFDEHPRLNIILGHMGEGLPYMMWRIDHRVAWVKLPPRYPAKRRFMDYFNENFHITTSGNFRTQTLIDAILEIGADRILFSTDWPFENIDHASDWFNATSIAEADRVKIGRTNARRLFKLDGA | High | – | 1.3 | –
277 (protein, Dicamba decarboxylase variant) MAQGKVALEEHFAIPETLQDSAGFVPGDYWKELQHRLLDIQDTRLKLMDKHGIETMILSLAAPAVQAIPDRRKAIEIARRANDMLAEECAKRPDRFLAFAALPLQDPDAATEELQRCVNDLGFVGALVNGFSQEGDGQTPLYYDLPQYRPFWGEVEKLDVPFYLHPRNPLPQDSRIYDGHPWLLGPTWAFAQETAVHALRLMASGLFDERPRLNIILGHMGEGLPYMMYRIDHRIAWVHEPPRYPAKRRFMDYFNENFHITTSGNFRTQTLIDAILEIGADRILFSTDWPFENIDHATAWFNATSIAEADRVKIGRTNARRLFKLDGA | – | – | – | 0.9
276 (protein, Dicamba decarboxylase variant) MAQGKVALEEHFAIPETLQDSAGFVPGDYWKELQHRLLDIQDTRLKLMDAHGIETMILSLAAPAVQAIPDRRKAIEIARRANDLLAEECAKRPDRFLAFAALPMQDPDAATEELQRCVNDLGFVGALVNGFSQEGDGQTPLYYDLPQYRPFWGEVEKLDVPFYLHPRNPLPQDSRIYDGHPWLLGPTWAFAQETAVHALRLMASGLFDEHPRLNIILGHMGEGLPYMMYRIDHRIAWVKLPPRYPAKRRFMDYFNENFHITTSGNFRTQTLIDAILEIGADRILFSTDWPFENIDHAADWFNATSIAEADRVKIGRTNARRLFKLDGA | – | – | – | 1.0
275 (protein, Dicamba decarboxylase variant) MAQGKVALEEHFAIPETLQDSAGFVPGDYWKELQHRLLDIQDTRLKLMDAHGIETMVLSLAAPAVQAIPDRRKAIEIARRANDMLAEECAKRPDRFLAFAALPLQDPDAATEELQRCVNDLGFVGALVNGFSQEGDGQTPLYYDLPQYRPFWGEVEKLDVPFYLHPRNPLPQDSRIYDGHPWLLGPTWAFAQETAVHALRLMASGLFDEHPRLNIILGHMGEGLPYMMYRIDHRIAWVHEPPRYPAKRRFMDYFNENFHITTSGNFRTQTLIDAILEIGADRILFSTDWPFENIDHAAAWFNATSIAEADRVKIGRTNARRLFKLDGA | – | – | – | 1.0
274 (protein, Dicamba decarboxylase variant) MAQGKVALEEHFAIPETLQDSAGFVPGDYWKELQHRLLDIQDTRLKLMDAHGIETMILSLAAPAVQAIPDRRKAIEIARRANDFLAEECAKRPDRFLAFAALPMQDVDAATEELQRCVNDLGFVGALVNGFSVEGDGQTPLYYDLPQYRPFWGEVEKLDVPFYLHPRNPLPQDSRIYDGHPWLLGPTWAFAQETAVHALRLMASGLFDEHPRLNIILGHLGEGLPYMMYRIDHRIAWVKLPPRYPAKRRFMDYFNENFHITTSGNFRTQTLIDAILEIGADRILFSTDWPFENIDHAADWFNATSIAEADRVKIGRTNARRLFKLDLD | – | – | – | 1.0
278 (protein, Dicamba decarboxylase variant) MAQGKVALEEHFAIPETLQDSAGFVPGDYWKELQHRLLDIQDTRLKLMDAHGIETMILSLAAPAVQAIPDRRKAIEIARRANDFLAEECAKRPDRFLAFAALPLQDPDAATEELQRCVNDLGFVGALVNGFSQEGDGQTPLYYDLPQYRPFWGEVEKLDVPFYLHPRNPLPQDSRIYDGHPWLLGPTWAFAQETAVHALRLMASGLFDEHPRLNIILGHMGEGLPYMMYRIDHRIAWVHEPPRYPAKRRFMDYFNENFHITTSGNFRTQTLIDAILEIGADRILFSTDWPFENIDHAAAWFNATSIAEADRLKIGRTNARRLFKLDGA | – | – | – | 1.2
15 (protein, listed as Metarhizium anisopliae) MAQEIAKSHETSTRFAGFAVLPMRDPEAAAKELERAVKKLGFVGALVDHKTAHGNGFCEGNEYDVLWRKAEQLAVPIYLHPSWPTEKQFQQAYAGNYSPTAAGTIGGAMFNWHSEVGHHVLRLYAAGVFDKFPKLKIIIGHFGEMIPYMLDRIREQDHRLGKTGRTFSEVYDENIWITTSGVWSLDPMRCILANTKIDHILYSVDYPFTMNERGLEWFQELEKSGLLSEEDLALIAYKNCEKLLGVKAPTQD | Low | Low | 1 | –
23 (protein, listed as Aplysina aerophoba) MAIDIDARSQPGLETARRAMSRRDFLGGAAAFGITAAATTALPASTAAGEEEDLFLLGLEEHFATAELRRLNGIQFPQGTPRFDINDVGAGRIADMDAAGIDIQVLSALTPGAQNLPGAEGVAYARRLNSWVAHEVIPAYPGRFRAFATLPLSEPQAAADELEYAVRELGFLGCMTYGAVDGKFLDHADFVPVLARAETLDVPIYIHPNWASPQVMDTYYNGLGNEWVSRVLSGAGYGWHQEVALQCLRMIASGVFDRFPRLQIIVGHMGEGLPFFYWRFGDDLARITADTLEKPVQQYFHDNFWITTSAFFRDELLRLVLSVMGEDRVMFAVDYPFVSNKVGADWFRAVDLPRNVKEKIAHKNAERLLKIGPF | Low | Low | 1.5 | –
24 (protein, Aspergillus niger) MALGKVVLEEAYERPNMKEKSNHEAGLYIAPNDRPRYMRQINDINQERLKLADAHGVGYTIISLTVPGIQGIFDKTEAERVATETNNWAAEQIKNHRDRLGAFACLSMHDPAQAANELRRCVQELGFHGALLCSFQHAGPDGETYLFYDQPKYDVFWKALTELDVPLYIHPAAPTGSILERLYAQRPALIGPPLSFANDVSLHTLGIISNGVFDRFPNLKIIIGHLGEHIPFDFWRIDHWFRDVKKPIADEEGRVMAQKSLYHYFKHNIWLTTSGHFSTPTLKYVVNEIGVDRVLFSVDYPYETTESGCNWWDHDKDAIVEAVGGVDNYYAIGRENAKKLLRLDKFHDSDAR | Low | Low | 1.6 | –
27 (protein, listed as Aspergillus oryzae) MALGKIALEEAFALPRFEEKTRWWASLFSTDAETHVKEITDINKIRIEHADKHGVGYQILSYTAPGVQDIWDPVEAQALAVEINDYIAEQVRVNPDRFGAFATLSMHNPKEAADELRRCVEKYGFKGALVNDTQRAGPDGDDMIFYDNADWDIFWQTCTELDVPFYMHPRNPTGTIYEKLWADRKWLVGPPLSFAHGVSLHVLGMVTNGVFDRHPKLQIIMGHLGEHVPFDMWRINHWFEDRKKLLGLAETCKKTIRDYFAENIWITTSGHFSTTTLNFCMAEVGSDRILFSIDYPFETFSDACEWFDNAELNGTDRLKIGRENAKKLFKLDSYKDSSA | No | No | 1 | –
25 (protein, listed as Acidovorax avenae) MAQGKIGLEEHFAIPETLQDSAGFVPGDYWKELSLRLLDIHERRLREMDENGMEMMILSLNAPAVQAIPDTKKAVEIAVRANDFLAEQVARRPDRFQAFAALPMQDPDLATRELERCMQDLGFRGALVNGFSQVGTPENVVYYDAPQYGDFWAAVERLDAPFYLHPRNPIASWAQIYQGHPWLMGPTWAFAQETAVHALRLMASGLFDRHPGLRIILGHLGEGLPYNMWRVDHRNAWVDMPKGYPAKRKLCDYFHENFYLTTSGNFRTQTLIDALLEVGADRILFSTDWPFENVDHAAHWFDDAAISEADRLKIGRTNALSLFKLPQG | Low | Low | 1 | –
